From article PMC8038991, “R-catcher, a potent molecular tool to unveil the arginylome” (Cellular and Molecular Life Sciences: CMLS, 2021)
“Also recorded” adds a separate entry of the source.

B1: LG3BP: lectin galactoside-binding soluble 3-binding protein (protein)
chain: VNDGDMRLADGGATNQGRVEIFYRGQWGTVCDNLWDLTDASVVCRALGFENATQALGRAAFGQGSGPIMLDEVQCTGTEASLADCKSLGWLKSNCRHERDAGVVCTNETRSTHTLDLSRELSEALGQIFDSQRGCDLSISVNVQGEDALGFCGHTVILTANLEAQALWKEPGSNVTMSVDAECVPMVRDLLRYFYSRRIDITLSSVKCFHKLASAYGARQLQGYCASLFAILLPQDPSFQMPLDLYAYAVATGDALLEKLCLQFLAWNFEALTQAEAWPSVPTDLLQLLLPRSDLAVPSELALLKAVDTWSWGERASHEEVEGLVEKIRFPMMLPEELFELQFNLSLYWSHEALFQKKTLQALEFHTVPFQLLARYKGLNLTEDTYKPRIYTSPTWSAFVTDSSWSARKSQLVYQSRRGPLVKYSSDYFQAPSDYRYYPYQSFQTPQHPSFLFQDKRVSWSLVYLPTIQSCWNYGFSCSSDELPVLGLTKSGGSDRTIAYENKALMLCEGLFVADVTDFEGWKAAIPSALDTNSSKSTSSFPCPAGHFNGFRTVIRPFYLTNSSGVD
modifications: left off: myc, end not stated, kept | His, end not stated, state not stated
B2: PRDX4: Peroxiredoxin-4 (protein, UniProt Q13162 38-271, looked up)
Peroxiredoxin-4: WETEERPRTREEECHFYAGGQVYPGEASRVSVADHSLHLSKAKISKPAPYWEGTAVIDGEFKELKLTDYRGKYLVFFFYPLDFTFVCPTEIIAFGDRLEEFRSINTEVVACSVDSQFTHLAWINTPRRQGGLGPIRIPLLSDLTHQISKDYGVYLEDSGHTLRGLFIIDDKGILRQITLNDLPVGRSVDETLRLVQAFQYTDKHGEVCPAGWKPGSETIIPDPAGKLKYFDKLN
B3: FBLN1: fibulin-1 (protein, UniProt P23142 30-703, looked up)
Fibulin-1: DVLLEACCADGHRMATHQKDCSLPYATESKECRMVQEQCCHSQLEELHCATGISLANEQDRCATPHGDNASLEATFVKRCCHCCLLGRAAQAQGQSCEYSLMVGYQCGQVFQACCVKSQETGDLDVGGLQETDKIIEVEEEQEDPYLNDRCRGGGPCKQQCRDTGDEVVCSCFVGYQLLSDGVSCEDVNECITGSHSCRLGESCINTVGSFRCQRDSSCGTGYELTEDNSCKDIDECESGIHNCLPDFICQNTLGSFRCRPKLQCKSGFIQDALGNCIDINECLSISAPCPIGHTCINTEGSYTCQKNVPNCGRGYHLNEEGTRCVDVDECAPPAEPCGKGHRCVNSPGSFRCECKTGYYFDGISRMCVDVNECQRYPGRLCGHKCENTLGSYLCSCSVGFRLSVDGRSCEDINECSSSPCSQECANVYGSYQCYCRRGYQLSDVDGVTCEDIDECALPTGGHICSYRCINIPGSFQCSCPSSGYRLAPNGRNCQDIDECVTGIHNCSINETCFNIQGGFRCLAFECPENYRRSAATLQQEKTDTVRCIKSCRPNDVTCVFDPVHTISHTVISLPTFREFTRPEEIIFLRAITPPHPASQANIIFDITEGNLRDSFDIIKRYMDGMTVGVVRQVRPIVGPFHAVLKLEMNYVVGGVVSHRNVVNVHIFVSEYWF
B4: SERPINH1: serpin H1 (protein, UniProt P50454 19-418, looked up)
Serpin H1: AEVKKPAAAAAPGTAEKLSPKAATLAERSAGLAFSLYQAMAKDQAVENILVSPVVVASSLGLVSLGGKATTASQAKAVLSAEQLRDEEVHAGLGELLRSLSNSTARNVTWKLGSRLYGPSSVSFADDFVRSSKQHYNCEHSKINFRDKRSALQSINEWAAQTTDGKLPEVTKDVERTDGALLVNAMFFKPHWDEKFHHKMVDNRGFMVTRSYTVGVMMMHRTGLYNYYDDEKEKLQIVEMPLAHKLSSLIILMPHHVEPLERLEKLLTKEQLKIWMGKMQKKAVAISLPKGVVEVTHDLQKHLAGLGLTEAIDKNKADLSRMSGKKDLYLASVFHATAFELDTDGNPFDQDIYGREELRSPKLFYADHPFIFLVRDTQSGSLLFIGRLVRPKGDKMRDEL
B5: RGS4: ATE1 model substrate RGS4 (2nd oxidized Cys) (protein)
chain: RCKGLAGLPASCLRSAKDMKHRLGFLLQKSDSCEHNSSHNKKDKVVICQRVSQEEVKKWAESLENLISHECGLAAFKAFLKSEYSEENIDFWISCEEYKKIKSPSKLSPKAKKIYNEFISVQATKEVNLDSCTREETSRNMLEPTITCFDEAQKKIFNLMEKDSYRRFLKSRFYLDLVNPSSCGAEKQKGAKSSADCASLVPQCA
modifications: oxidized Cys as 2nd residue; left off: myc, end not stated, kept | His, end not stated, state not stated

What was measured:
R-catcher [1] = assay: R-catcher pulldown of putative arginylated ER proteins, HeLa; format: binding, human; conditions: 5 µM MG132 plus 100 nM TG, RA competition, Fig. 6a
Description: (§1) For small-scale R-catcher pull-down assays, 300 µg of purified R-catcher was conjugated with 120 µl of Strep-Tactin sepharose resin by incubating overnight at 4 °C. To test R-catcher’s ability to capture known arginylated proteins, such as R-BiP, R-PDI, R-nsP4 and R-RGS4, plasmids encoding Ub-X-(BiP, PDI and nsP4) or MX-RGS4 (X = Arg or Val) were transiently transfected into HEK293 cells. After 24 h, cells were treated with 10 µM MG132 and 100 nM thapsigargin for another 24 h. Cells were harvested and lysed in hypotonic buffer and 300 µg total protein was incubate with 25 µl R-catcher-sepharose resin in binding buffer (20 mM HEPES pH 7.9, 0.05% Tween 20, 10% glycerol, 0.2 M KCl, protease inhibitor and phosphatase inhibitor) for 3 h with gentle rotation at 4 °C. After three washes with binding buffer, bound proteins were dissociated with 2 × SDS sample buffer and boiling at 100 °C and subjected to immunoblotting using anti-myc or flag antibodies.
Plasmids encoding the proteins were transiently transfected to HeLa cells for 24 h and stimulated with 5 µM MG132 plus 100 nM TG for another 24 h. Cell lysates were incubated with R-catcher immobilized on tactin beads for 3 h. After wash, bound proteins were eluted with 2 × SDS sample buffer followed by boiling at 100 °C for 10 min and visualized by western blot analysis. b R-catcher pulldown assays to validate ATE1-dependent arginylation of […]1, PRDX4, FBLN1 and CLUS. Plasmids encoding […]1, PRDX4, FBLN1 and CLUS were transiently transfected into + / + and ATE1^−/− MEFs for 24 h and stimulated with 5 µM MG132 plus 100 nM TG for another 9 h. Cell lysates were subjected to R-catcher pulldown, and bound proteins were detected by western blot analysis. c R-catcher pull-down assays to evaluate if the arginylation of FBNL1, SERPINH1, CLUS and PRDX4 is induced in response to MG132 plus thapsigargin. d X-peptide pulldown assays to confirm no interaction of R-catcher with Nt-Ala19 of SERPINH1 peptides and Nt-Trp38 of PRDX4 peptides. X-peptides where X is A19 (SignalP predicted P1’ site), E20 (next possible P1’ site predicted by PrediSi) or R19 (Arginylated form of Glu) for SERPINH1 and W38 (SignalP predicted P1’ site), E39 (next possible P1’ site predicted by PrediSi) or R38 (Arginylated form) for PRDX4. Biotinylated X-peptides immobilized on streptavidin agarose beads were incubated with affinity-purified GST-ZZ ([…]). Bound GST-ZZ (N132D) was detected by immunoblotting. e Identification of arginylated sites employing mutational analysis. Predicted P1’ sites of SERPINH1, PRDX4, CLUS and FBLN1 were substituted to Gly, and the inhibitory effect of the mutation on binding with R-catcher was examined by performing R-catcher pulldown assays

[2] = Identification of arginylation sites, GelNrich and in-gel digestion LC-MS/MS
Source text: Upon separation of the immunoprecipitated protein by SDS-PAGE and staining with Coomassie Blue, the corresponding protein band was excised, half of which was subjected to GelNrich and the other half to conventional in-gel digestion GelNrich is an N-terminal peptide enrichment method based on in-gel digestion. The method includes in-gel protein level labeling of primary amines using d6-acetic anhydride and post-digestion negative selection of labeled N-terminal peptide(s) using N-hydroxysuccinimide activated agarose beads. Peptides recovered from GelNrich or in-gel digestion were dried in a vacuum evaporator and reconstituted in 0.1% formic acid. An aliquot was injected from a cooled (10 °C) auto-sampler into a reversed-phase EASY-Spray column (25 cm × 75 μm, Thermo Fisher Scientific) on an Eksigent nanoLC-ultra 1D plus system (Danaher Corporation) at a flow rate of 300 nL/min. Prior to use, the column was equilibrated with 96% buffer A (0.1% formic acid in water) and 4% buffer B (0.1% formic acid in acetonitrile). The peptides were eluted with a linear gradient from 4 to 35% buffer B over 60 min and 35–80% buffer B over 2 min followed by an organic wash and aqueous re-equilibration at a flow rate of 300 nL/min with a total run time of 96 min. The HPLC system was coupled to a Q-Exactive mass spectrometer (Thermo Fisher Scientific) operated in a data-dependent acquisition (DDA) mode. Survey full-scan MS spectra (m/z 400–1800) were acquired with a resolution of 70,000. The MS/MS spectra of the 12 most intense ions from the MS1 scan with charge states 1 ~ 5 were acquired with the following options: resolution, 17,500; automatic gain control (AGC) target, 5E4; isolation width, 2.0 m/z; normalized collision energy, 27%; dynamic exclusion duration, 60 s; and ion selection threshold, 4.2E2 counts. Source ionization parameters were as follow: spray voltage, 1.9 kV; capillary temperature, 275 °C; and s-lens level, 50.0. […]

R-catcher [3] = assay: R-catcher pulldown of P1' site Gly mutants; format: binding, human; conditions: E20 SERPINH1, E30 (printed) PRDX4, D23 CLUS, D30 FBLN1 to Gly, Fig. 6e
Description: as §1
(§2) Plasmids encoding the proteins were transiently transfected to HeLa cells for 24 h and stimulated with 5 µM MG132 plus 100 nM TG for another 24 h. Cell lysates were incubated with R-catcher immobilized on tactin beads for 3 h. After wash, bound proteins were eluted with 2 × SDS sample buffer followed by boiling at 100 °C for 10 min and visualized by western blot analysis. b R-catcher pulldown assays to validate ATE1-dependent arginylation of […]1, PRDX4, FBLN1 and CLUS. […] Cell lysates were subjected to R-catcher pulldown, and bound proteins were detected by western blot analysis. c R-catcher pull-down assays to evaluate if the arginylation of FBNL1, SERPINH1, CLUS and PRDX4 is induced in response to MG132 plus thapsigargin. d X-peptide pulldown assays to confirm no interaction of R-catcher with Nt-Ala19 of SERPINH1 peptides and Nt-Trp38 of PRDX4 peptides. […] Bound GST-ZZ (N132D) was detected by immunoblotting. e Identification of arginylated sites employing mutational analysis. […]

R-catcher [4] = assay: R-catcher pulldown in +/+ and ATE1-/- MEFs; format: binding; conditions: +/+ versus ATE1-/- MEFs, MG132 plus TG, 9 h, Fig. 6b
Description: as §1, §2

R-catcher [5] = assay: Small-scale R-catcher pulldown of known arginylated proteins; format: binding, human; conditions: HEK293 cells, R-catcher on tactin beads, immunoblot, Fig. 4d
Description: as §1

Molecule | binding with R-catcher, Nt-Arg dependence (R-catcher [1]) | arginylation detected by mass spectrometry [2] | effect of Gly substitution of P1' site on interaction with R-catcher (R-catcher [3]) | capture by R-catcher, ATE1 dependence (R-catcher [4]) | pulldown by R-catcher, overexpressed substrates (R-catcher [5])
B1 | no significant binding affinity for R-catcher |  |  |  | 
B2 | Nt-Arg-dependent binding with R-catcher | not detected | significantly impaired their interaction with R-catcher; also recorded: abolished their binding with R-catcher | captured by R-catcher in an ATE1-dependent manner | 
B3 | Nt-Arg-dependent binding with R-catcher | the D30 residue | significantly impaired their interaction with R-catcher; also recorded: abolished their binding with R-catcher | captured by R-catcher in an ATE1-dependent manner | 
B4 | Nt-Arg-dependent binding with R-catcher | not detected | significantly impaired their interaction with R-catcher; also recorded: abolished their binding with R-catcher | captured by R-catcher in an ATE1-dependent manner | 
B5 |  |  |  |  | could pulldown
